One test has as its target T1, L1-CR1 (Her054P).
T1 construct: also called 1.0
T1 chain: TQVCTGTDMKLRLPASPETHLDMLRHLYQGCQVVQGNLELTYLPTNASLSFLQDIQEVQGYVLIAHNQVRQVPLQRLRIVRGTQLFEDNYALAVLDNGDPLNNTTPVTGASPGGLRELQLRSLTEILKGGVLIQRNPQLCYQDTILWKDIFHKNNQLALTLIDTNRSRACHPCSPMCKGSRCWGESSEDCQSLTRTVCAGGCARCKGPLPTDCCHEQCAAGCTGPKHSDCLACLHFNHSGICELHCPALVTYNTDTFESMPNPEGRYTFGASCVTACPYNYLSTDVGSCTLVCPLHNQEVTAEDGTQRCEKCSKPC
Briefly: ELISA, soluble scFv on L1-CR1. For orientation: ELISA stands for enzyme-linked immunosorbent assay.

The target of test [1] is T2, Her008P, full-length extracellular domain (ECD) of Her2 expressed with a mIgG2a Fc tail (human; murine, UniProt P04626 23-652).
T2 construct: also called SIIS; SIIS (Dimer); not shown: murine IgG2a Fc tail
Briefly: ELISA, soluble scFv on ECD.

Another test concerns the target T3, Full length HER2 (human, UniProt P04626 23-1255).
T3 construct: Endogenous HER2 on SKBR3, BT474, 22rv1, MDA-MB-175, MDA-MB-453 and MDA-MB-361 cells; also called HER2 on the cell surface; ErbB2
The test can be described thus: cell ELISA, phage scFv, SKBR3 cells.

Test [2] addresses T4, ECD region of Her2 (human, UniProt P04626 23-652).
T4 construct: extracellular domain; Generic target of the scFv screen; also called extracellular domain (ECD) of Her2 (ErbB2)
The test can be described thus: cell ELISA, phage scFv, CHO-ECD cells.
Method: 2×10⁴ CHOK1 cells/well were seeded in a 96-well tissue culture plate on Day 1 and incubated at 37° C./5% CO₂ for 2-4 days until a confluent monolayer was observed. Cells were washed five times with PBS (+ Ca/Mg ions) and blocked for 1 hour at room temperature with 3% skim milk/1% BSA/PBS (+ Ca/Mg ions). Phage or peripreps were prepared as described above and were blocked for 1 hour at room temperature in an equal volume of 6% skim milk/1% BSA/PBS (+ Ca/Mg ions). Blocked plates were washed five times with PBS (+ Ca/Mg ions) and 50 μl/well of blocked phage or periprep were transferred to the appropriate plates and incubated for 1 hour at room temperature. […] Plates were incubated for a further hour at room temperature and washed ten times with PBS (+ Ca/Mg ions). Signal was developed using TMB, the reaction stopped with H₂SO₄ and the absorbance read at 450 nm on an ENVISION plate reader (Perkin Elmer).

The target in test [3] is T5, Her018P, Her2 ECD with a deletion in the CR2 (Domain IV) region expressed with a mIgG2a Fc tail (human; murine, UniProt P04626 23-599).
T5 construct: Shares the name HER018 with the trastuzumab SMIP; also called 1.8 (Dimer); dimeric HER018; not shown: murine IgG2a Fc tail (C-terminal dimerising carrier) and any junction residues
Briefly: ELISA, soluble scFv on Her018.

In another test the target is T6, EQR (Her017P).
T6 construct: also called HER2 EQR-Fc; HER2 EQR DIMER
The test can be described thus: ELISA, soluble scFv on EQR.

The target in test [4] is T4, ECD region of Her2. The test can be described thus: screening after three rounds of phage selection, soluble periplasmic scFv.

The record followed here is patent US20090258005A1 (TRUBION PHARMACEUTICALS, published 2009).

Method for EQR (Her017P): (§1) Various Her2-Fc proteins (e.g., Her008P, Her017P, Her018P, etc.) or a negative control murine IgG2a protein were coated overnight at 4° C. on 96-well Nunc Maxisorp at a concentration of 1 ug/ml in PBS. Alternatively, pre-blocked streptavidin-coated plates (Greiner) were coated with biotinylated Her2-Fc proteins for 1 hour at room temperature at a concentration of 1 ug/ml in block buffer (3% skim milk/1% BSA/PBS). Plates were washed three times using PBS and blocked for 1 hour at room temperature in 3% skim milk/1% BSA/PBS. Phage or peripreps were prepared as described above and were blocked for 1 hour at room temperature in an equal volume of 6% skim milk/1% BSA/PBS. Blocked plates were washed five times with PBS and 50 μl/well of blocked phage or periprep were transferred to the appropriate plates and incubated for 1 hour at room temperature. […] Plates were incubated for a further hour at room temperature and washed seven times with PBS. Signal was developed using TMB, the reaction stopped with H₂SO₄ and the absorbance read at 450 nm on an Envision plate reader (Perkin Elmer).
Method for L1-CR1 (Her054P): as §1

B1: S1R3B2_BMV_1G2 (scFv, V domains shown)
VH: QVQLVQSGAEVKKPGSSVKVSCKASGYTFTSYGISWVRQAPGQGLEWMGWISAYNGNTNYAQKLQGRVTMTTDTSTSTAYMELRSLRSDDTAVYYCARVPGVSGSYPDYYYMDVWGKGTLVTVSS
VL: DIQMTQSPSTLSASIGDRVTITCRASEGIYHWLAWYQQKPGKAPKLLIYKASSLASGAPSRFSGSGSGTDFTLTISSLQPDDFATYYCQQYSNYPLTFGGGTKLEIK
notes: scFv, on phage in the screen; also called Her2_S1R3B2_BMV_1G2
For the molecule B1, the binding result is on record as “no binding” with L1-CR1 (Her054P); “binds” in test [1]; “binds” with Full length HER2; “binds” with ECD region of Her2 [2]; “binds” in test [3]; “binds” in the test with EQR (Her017P).

B2: S1R3C1_CS_1D3 (scFv, V domains shown)
VH: QVQLQESGPGLVKPSQTLSLTCGISGDSVSSNSAAWNWIRQSPTRGLEWLGRTYYRSSWYHNYAPSMNSRLTIIADTSKNQFSLQLNSVTPEDTAVYYCASGWAFDVWGRGTLVTVSS
VL: QSVLTQPPSASGSPGQSVTISCTGTSSDVGAYDFVSWYQQHPGKAPKLMIYEVNKRPSGVPDRFSGSKSGNTASLTVSGLQAEDEADYYCSSYAGSKNLLFGGGTKLTVL
notes: scFv, on phage in the screen; also called Her2_S1R3C1_CS_1D3
B2: the binding result is “no binding” in the test with L1-CR1 (Her054P); “binds” in test [1]; “binds” with Full length HER2; “binds” in the test with ECD region of Her2 [2]; “no binding” in test [3]; “binds” with EQR (Her017P).

B3: S1R3B1_BMV_1H9 (scFv, V domains shown)
VH: QVQLQESGAGLVKPSGTLSLTCAVSGGSISSGNWWSWVRQPPGKGLEWIGEISHSGSTNYNPSLKSRVTISVDKSKNQFSLNLSSVTAADTAVYYCARVRGTVGDTRGPDYWGQGTLVTVSS
VL: SSELTQDPAVSVALGQTVRITCQGDSLRSYYASWYQQKPGQAPVLVIYGKNNRPSGIPDRFSGSSSGNTASLTITGAQAEDEADYYCNSRDSSGNHVVFGGGTKLTVL
notes: scFv, soluble from bacterial periplasm in the screen; also called Her2_S1R3B1_BMV_1H9
For B3, the binding result in the test with L1-CR1 (Her054P) is listed as “no binding”; in test [1], “binds”; with ECD region of Her2 [4], “binds”; in test [3] it was “no binding”; with EQR (Her017P), “no binding”.
